Experimental data published in patent US20230112035A1 (AstraZeneca / MedImmune, published 2023).
Like-named read-outs stand apart in the source and are kept apart here. One block for each binder: values may come before it.

Key:
[1] = biological target: T1, recombinantly produced αvβ8 integrin protein (UniProt P06756 31-992; P26012 43-684); test: Biacore
T1 chain 1: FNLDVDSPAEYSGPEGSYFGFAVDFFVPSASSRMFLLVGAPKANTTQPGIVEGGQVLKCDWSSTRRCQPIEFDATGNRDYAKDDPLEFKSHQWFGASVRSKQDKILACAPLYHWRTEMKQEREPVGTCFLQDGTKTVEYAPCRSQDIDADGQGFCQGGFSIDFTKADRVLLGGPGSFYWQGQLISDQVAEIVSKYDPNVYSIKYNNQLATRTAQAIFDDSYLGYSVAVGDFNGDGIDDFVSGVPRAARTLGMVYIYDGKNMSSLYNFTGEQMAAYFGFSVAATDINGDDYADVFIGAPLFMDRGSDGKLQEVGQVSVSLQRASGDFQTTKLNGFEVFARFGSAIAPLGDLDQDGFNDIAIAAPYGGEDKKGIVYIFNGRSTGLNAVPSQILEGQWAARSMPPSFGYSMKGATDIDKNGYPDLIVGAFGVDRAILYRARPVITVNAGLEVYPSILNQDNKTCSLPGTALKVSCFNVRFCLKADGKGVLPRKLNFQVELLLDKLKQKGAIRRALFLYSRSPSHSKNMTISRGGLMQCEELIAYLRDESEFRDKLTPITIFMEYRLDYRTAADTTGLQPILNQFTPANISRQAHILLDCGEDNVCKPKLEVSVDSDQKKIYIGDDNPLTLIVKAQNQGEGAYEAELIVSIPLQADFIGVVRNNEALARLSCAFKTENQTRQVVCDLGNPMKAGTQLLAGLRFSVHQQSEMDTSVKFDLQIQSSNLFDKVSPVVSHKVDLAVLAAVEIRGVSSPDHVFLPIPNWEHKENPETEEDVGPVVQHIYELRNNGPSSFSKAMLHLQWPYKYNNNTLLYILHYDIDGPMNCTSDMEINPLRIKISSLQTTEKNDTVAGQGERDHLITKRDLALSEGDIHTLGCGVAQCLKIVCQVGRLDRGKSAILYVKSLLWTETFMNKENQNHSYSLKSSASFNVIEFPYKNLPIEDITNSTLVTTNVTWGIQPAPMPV
T1 chain 2: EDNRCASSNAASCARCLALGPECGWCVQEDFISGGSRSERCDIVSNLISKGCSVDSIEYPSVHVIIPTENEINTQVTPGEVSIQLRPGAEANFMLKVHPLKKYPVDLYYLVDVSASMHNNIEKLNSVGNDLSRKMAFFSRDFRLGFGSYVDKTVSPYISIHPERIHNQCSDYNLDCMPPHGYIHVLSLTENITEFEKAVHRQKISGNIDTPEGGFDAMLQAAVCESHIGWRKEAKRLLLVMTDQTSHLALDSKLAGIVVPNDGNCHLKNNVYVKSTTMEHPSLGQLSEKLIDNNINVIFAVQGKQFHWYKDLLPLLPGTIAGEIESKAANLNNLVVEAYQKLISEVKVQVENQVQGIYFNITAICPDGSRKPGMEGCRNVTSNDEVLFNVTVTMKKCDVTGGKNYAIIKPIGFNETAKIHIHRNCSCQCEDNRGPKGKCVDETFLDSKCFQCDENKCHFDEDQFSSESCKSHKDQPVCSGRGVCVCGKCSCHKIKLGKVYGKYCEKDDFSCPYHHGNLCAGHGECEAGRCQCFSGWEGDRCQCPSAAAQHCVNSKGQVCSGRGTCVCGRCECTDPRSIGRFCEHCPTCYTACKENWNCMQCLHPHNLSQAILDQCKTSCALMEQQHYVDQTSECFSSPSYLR

[2] = biological target: T1, recombinantly produced αvβ8 integrin …
[3] = biological target: human αvβ8 integrin expressed on cells and in tissue (human, UniProt P06756 31-1048; P26012 43-769); test: cell-based or functional assay
[4] = biological target: T2, recombinantly produced αvβ8 integrin protein (human, UniProt P06756 31-992; P26012 43-684); test: ELISA screening of position 94 mutants
T2 construct: Protein coated on ELISA plates and used in Biacore; also called integrin αvβ8

[5] = biological target: T1, recombinantly produced αvβ8 integrin …; test: Biacore; value is an estimate

- Kd [1]: 0.5 nM
- Kd [2]: 0.5 nM
B1: Chi-37E1B5 chimeric anti-αvβ8 integrin antibody (antibody, V domains shown)
VH: EVQLVESGGGLVQPGGSLNLSCAVSGFVFSRYWMSWVRQAPGKGLEWIGEINPDSSTINYTSSLKDKFIISRDNAKNTLYLQMNKVRSEDTALYYCACLITTEDYWGQGTSVTVSS
VL: EIVLTQSPSSMYASLGERVTIPCKASQDINSYLSWFQQKPGKSPKTLIYYANRLVDGVPSRFSGSGSGQDYSLTISSLEYEDMGIYYCLQYDEFPYTFGGGTKLEIK

- Kd [2]: 0.166 nM
- SMAD2/3 phosphorylation in kidney lysates of humanized αvβ8 transgenic mice after UUO (ELISA) [3]: 1.6 fold
B2: B5-15 humanized and affinity optimized anti-αvβ8 integrin antibody (antibody, V domains shown)
VH: EVQLVESGGGLVQPGGSLRLSCAVSGFVFSRSWISWVRQAPGKGLEWIGEINPDSSTINYTSSLKDRFTISRDNAKNSLYLQMNSLRAEDTAVYYCAILITTEDYWGQGTTVTVSS
VL: DIQLTQSPSSLSASVGDRVTITCKASQDINKYLSWFQQKPGKAPKSLIYYANRLVDGVPSRFSGSGSGTDFTLTISSLQPEDFATYYCLQYDVFPYTFGGGTKVEIK

- fold reduction in αvβ8 binding affinity (against MEDI-hu37E1B5 with Cys 94) [4]: ~3 fold
B3: MEDI-hu37E1B5-C94I mutant antibody (antibody, V domains shown)
VH: EVQLVESGGGLVQPGGSLRLSCAVSGFVFSRYWMSWVRQAPGKGLEWIGEINPDSSTINYTSSLKDRFTISRDNAKNSLYLQMNSLRAEDTAVYYCAILITTEDYWGQGTTVTVSS
VL: DIQLTQSPSSLSASVGDRVTITCKASQDINSYLSWFQQKPGKAPKSLIYYANRLVDGVPSRFSGSGSGTDFTLTISSLQPEDFATYYCLQYDEFPYTFGGGTKVEIK
notes: IgG; also called humanized anti-αvβ8 integrin antibody C94I

- Kd [5]: ~490 nM
B4: hu37E1B5 anti-αvβ8 integrin antibody (UCSF humanized sequence of WO 2013/026004) (antibody, V domains shown)
VH: EVQLVESGGGLVQPGGSLRLSCAVSGFVFSRYWMSWVRQAPGKGLEWIGEINPDSSTINYTSSLKDRFTISRDNAKNSLYLQMNSLRAEDTAVYYCASLITTEDYWGQGTTVTVSS
VL: EIVLTQSPSSLSLSPGERVTITCKASQDINSYLSWYQQKPGKAPKLLIYYANRLVDGVPARFSGSGSGQDYTLTISSLEPEDFAVYYCLQYDEFPYTFGGGTKLEIK
